The chains are these.
T1: DGI-2 (UniProt Q15004 1-111, limits assumed)
T1 construct: Soluble recombinant DGI-2 made by in vitro translation (RTS, pIVEX2.3-MCS vector) and coated on plates for the ELISA; vector tag not described; also called KIAA0101; DGI-2 polypeptide
T1 sequence (looked up): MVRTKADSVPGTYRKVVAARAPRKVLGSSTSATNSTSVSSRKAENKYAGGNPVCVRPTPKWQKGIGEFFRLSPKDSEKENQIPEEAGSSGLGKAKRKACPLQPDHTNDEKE

No end group written: not given here.

The target of this experiment is T1, DGI-2. Description: phage ELISA, coated DGI-2. How it is done: For analysis of individual target binders, colonies were picked and phage prepared as described above using helper phage, M13KO7. Ninety-six-well microtiter plates were coated with 500 ng/well of specific target protein, 500 ng/well lactate dehydrogenase (LDH) irrelevant or non-specific target, 500 ng/well of positive control antibody raised against ETAG, and negative control of non-fat milk powder-PBS 2% at 4° C. overnight. Plates were then blocked with 350 microliters/well PBS containing 2% non-fat milk for 1 hr at room temperature. One hundred microliters per well of phage from isolated clones were added and plates were incubated at room temperature for 2 hr after centrifuging samples for 20 minutes at 3500 rpm at 4° C. The phage solution was then removed, and the wells were washed three times with PBS at room temperature. Antibody raised against M13 conjugated to horseradish peroxidase (Pharmacia) was diluted 1:3000 in PBS-Tween and added to each well (100 µl/well). Incubation was for 1 hr at room temperature, followed by washing with PBS-(0.5%) Tween 3 times as described. Color was developed by addition of ABTS solution (100 µl/well; Boehringer, Indianapolis, Ind.). Plates were analyzed at 405 nm. A clone was considered "positive" if the $A405$ of the well was $\geq$2-fold over background.
Background: ELISA stands for enzyme-linked immunosorbent assay.
As for SVSGGGVFGTGGRVRHQVSG (on M13 phage, pIII fusion with E-tag) [DGI-2-20F-PP-C5], the binding result is reported as “binds”.
As for LWRRWSEGQLLGDGELRGDG (on M13 phage, pIII fusion with E-tag) [DGI-2-20R-3-B52], the binding result was “binds”.
For CYLSRLFRSGQGIGQFGHVE (on M13 phage, pIII fusion with E-tag) [DGI-2-20F-PP-A82] the value was “binds”; for SLLCVVCRPVSGGRALGGVP (not fully specified; cysteine pairing not given here, on M13 phage, pIII fusion with E-tag) [DGI-2-20F-PP-B42], “binds”; for VGHLLSRCAHHSPGMGASPYG (on M13 phage, pIII fusion with E-tag) [DGI-2-20F-PP-B11], “binds”.
For PVYRVAMCRISVGCSAGAWF (not fully specified; cysteine pairing not given here, on M13 phage, pIII fusion with E-tag) [DGI-2-20F-PP-C12] the value was “binds”; for VSGVPDGSMRAAQLASGYWC (on M13 phage, pIII fusion with E-tag) [DGI-2-20F-PP-G2], “binds”.
With GHGAGDWAAELFVCPVAFLTGFAWR (on M13 phage, pIII fusion with E-tag) [DGI-2-20R-4-H2], the binding result is listed as “binds”.
For RISVGQCGTSRCGGGRRGGG (not fully specified; cysteine pairing not given here, on M13 phage, pIII fusion with E-tag) [DGI-2-20F-PP-D1] the value was “binds”; for VCSGGKGTWLEIPDRVRSST (on M13 phage, pIII fusion with E-tag) [DGI-2-20F-PP-A22], “binds”; for LVIGQRSFLSACSLFDGFCV (not fully specified; cysteine pairing not given here, on M13 phage, pIII fusion with E-tag) [DGI-2-20R-4-H814], “binds”.
VTGTRFRGFAVACVRMGTWH (on M13 phage, pIII fusion with E-tag) [DGI-2-20F-PP-F2]: the binding result was “binds”.
As for CCAWNGVGVGGLGWRVVVGP (on M13 phage, pIII fusion with E-tag) [DGI-2-20F-PP-H4], the binding result is reported as “binds”.
As to FRMWVQSCFWGQPGTGCGEG (not fully specified; cysteine pairing not given here, on M13 phage, pIII fusion with E-tag) [DGI-2-20R-3-D2], the binding result was “binds”.
For LFSATGCALMSGFCLGSDGS (not fully specified; cysteine pairing not given here, on M13 phage, pIII fusion with E-tag) [DGI-2-20R-3-C1] the value was “binds”; for TFTRDVAGPAVSFVRLHSWN (on M13 phage, pIII fusion with E-tag) [DGI-2-20F-PP-A9], “binds”.
For WVVALRRIRLGLRRGVECLL (on M13 phage, pIII fusion with E-tag) [DGI-2-20F-PP-D5] the value was “binds”; for DRHRAFVAEGLDGFRHSTGV (on M13 phage, pIII fusion with E-tag) [DGI-2-20F-PP-D4], “binds”; for RKGWGVFCIPGLRFCDWSDP (not fully specified; cysteine pairing not given here, on M13 phage, pIII fusion with E-tag) [DGI-2-20R-3-B4], “binds”.
In the case of RQRSGGRWVVDRVTRVASTSP (on M13 phage, pIII fusion with E-tag) [DGI-2-20F-PP-B12], the binding result is on record as “binds”.
The entry for DGRGWGAMWMRWAEGLGADI (on M13 phage, pIII fusion with E-tag) [DGI-2-20R-4-G114] is “binds”; for GGDLGEQGVQLCPDVVRGGSL (on M13 phage, pIII fusion with E-tag) [DGI-2-20F-PP-A7] it is “binds”; for RRFVRCSVPVALRSAVPVSV (on M13 phage, pIII fusion with E-tag) [DGI-2-20F-PP-A10] it is “binds”.
Consider MGADTCMGGKMPFDQMFGAV (on M13 phage, pIII fusion with E-tag) [DGI-2-20F-PP-E10], for which the binding result is on record as “binds”.
For GRWDGWEVCGIWGADDCASG (not fully specified; cysteine pairing not given here, on M13 phage, pIII fusion with E-tag) [DGI-2-20R-4-H1] the value was “binds”.
For SVTISTSCRTGCPAGYLRRD (not fully specified; cysteine pairing not given here, on M13 phage, pIII fusion with E-tag) [DGI-2-20F-PP-D2] the value was “binds”; for GASRVVDVGWRFWGKLWQRS (on M13 phage, pIII fusion with E-tag) [DGI-2-20F-PP-G5], “binds”; for VVHTRAWGSWAYGFVLRNRG (on M13 phage, pIII fusion with E-tag) [DGI-2-20F-PP-F10], “binds”.
For RRGVCEIFTGWCVGQTNERP (not fully specified (bridges); cysteine pairing not given here, on M13 phage, pIII fusion with E-tag) [DGI-2-20R-4-H626] the value was “binds”; for TPVAISIPAGVCSTSVCGRD (not fully specified; cysteine pairing not given here, on M13 phage, pIII fusion with E-tag) [DGI-2-20F-PP-C11], “binds”.
For the molecule VQSGRDLGGLLRGGTGTEASP (on M13 phage, pIII fusion with E-tag) [DGI-2-20F-PP-D3], the binding result was “binds”.
Regarding EGQRVVFLFGALVAGLCWRDR (on M13 phage, pIII fusion with E-tag) [DGI-2-20F-PP-F3], the binding result was “binds”.
The entry for YAMSSRECGIRNSGLILSMW (on M13 phage, pIII fusion with E-tag) [DGI-2-20F-PP-C9] is “binds”; for SAFGCPLPRALGGGGARFYA (on M13 phage, pIII fusion with E-tag) [DGI-2-20F-PP-E11] it is “binds”.
For VVGYAQGDGLEGGLGSSRDGS (on M13 phage, pIII fusion with E-tag) [DGI-2-20F-PP-D8] the value was “binds”; for SRELGKWGRLWQDWSSGNFS (on M13 phage, pIII fusion with E-tag) [DGI-2-20R-3-C11], “binds”; for LSLEGGWMWDTKGGDGGSAQ (on M13 phage, pIII fusion with E-tag) [DGI-2-20R-4-F93], “binds”.
The entry for VGQSSGDARPLANLFVFPFV (on M13 phage, pIII fusion with E-tag) [DGI-2-20F-PP-F12] is “binds”; for WWREWVDGSLRGGGGTVLKD (on M13 phage, pIII fusion with E-tag) [DGI-2-20R-3-A122] it is “binds”.
As for VWAAWVEGSLLSPRQEPVRD (on M13 phage, pIII fusion with E-tag) [DGI-2-20R-4-G4], the binding result is “binds”.
The entry for GWSDFVATGSWSGQVSAALN (on M13 phage, pIII fusion with E-tag) [DGI-2-20R-4-F120] is “binds”; for LLLPVRWRDAQPRSLLMEWI (on M13 phage, pIII fusion with E-tag) [DGI-2-20F-PP-F8] it is “binds”.
As for RGSLLLTLPRLSGAVGTAYG (on M13 phage, pIII fusion with E-tag) [DGI-2-20F-PP-B3], the binding result is given as “binds”.
For LFRFSGTGMASLPCVGWHLV (on M13 phage, pIII fusion with E-tag) [DGI-2-20F-PP-B6], the binding result is “binds”.
The entry for CGGWGAMWEAWVQGLNGAGC (not fully specified; cysteine pairing not given here, on M13 phage, pIII fusion with E-tag) [DGI-2-20R-3-D4] is “binds”; for GLYQRGLAPRCRGERFGVRN (on M13 phage, pIII fusion with E-tag) [DGI-2-20F-PP-C2] it is “binds”.
For GGSLPVKSGQLVTCCTSKGG (on M13 phage, pIII fusion with E-tag) [DGI-2-20F-PP-F5], the binding result is on record as “binds”.
The entry for RSYPRLCKQKGGVIGRMLPG (on M13 phage, pIII fusion with E-tag) [DGI-2-20F-PP-B2] is “binds”; for VWRDWVNGTVGLRNREKPGV (on M13 phage, pIII fusion with E-tag) [DGI-2-20R-3-A5] it is “binds”.

The values are drawn from patent US7056679 (ANTYRA, dated 2006).
